Source: publication PMC10816986, “The Role of Key Amino Acids of the Human Fe(II)/2OG-Dependent Dioxygenase ALKBH3 in Structural Dynamics and Repair Activity toward Methylated DNA” (International Journal of Molecular Sciences, 2024)

Key:
[1] = design: method as in PMID 35956910, doi:10.1134/S1068162019060190; conditions: previous investigations; read-out: Kd for complexes with transitional metals and 2OG; cited from earlier work
[2] = test system: single-stranded DNA substrate m3C_FAM; design: method as in PMID 35956910; conditions: similar m3C-containing substrate, identical conditions; cited from earlier work
[3] = target: T1, ALKBH3 H191A (Homo sapiens, UniProt Q96Q83 1-286, H191A); assay: intrinsic Trp fluorescence titration; apoprotein, 2 mM EDTA, no Fe(II)/2OG; Titration: 50 mM HEPES-KOH pH 7.8, 50 mM KCl, 10 mM MgCl2, 2 mM EDTA, 25 °C, 1 µM apoprotein; stopped-flow: with Fe(II) and 2OG, 0.5-4.0 µM DNA (buffer not in material); conditions: protein: recombinant; (Ni-chelating purification); single strand
T1 sequence: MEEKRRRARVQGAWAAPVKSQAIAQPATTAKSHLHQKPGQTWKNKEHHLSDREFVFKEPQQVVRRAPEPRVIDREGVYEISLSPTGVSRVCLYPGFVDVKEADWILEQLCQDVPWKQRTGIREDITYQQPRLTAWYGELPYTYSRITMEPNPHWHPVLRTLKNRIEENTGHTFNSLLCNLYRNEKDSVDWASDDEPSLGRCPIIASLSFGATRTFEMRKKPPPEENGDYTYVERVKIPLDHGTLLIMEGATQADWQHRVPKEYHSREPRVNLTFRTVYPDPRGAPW

[4] = target: T2, ALKBH3 wt (Homo sapiens, UniProt Q96Q83 1-286); assay: as above; conditions: protein: recombinant; tags: N-terminal His-tag (pET28a); single strand
T2 sequence: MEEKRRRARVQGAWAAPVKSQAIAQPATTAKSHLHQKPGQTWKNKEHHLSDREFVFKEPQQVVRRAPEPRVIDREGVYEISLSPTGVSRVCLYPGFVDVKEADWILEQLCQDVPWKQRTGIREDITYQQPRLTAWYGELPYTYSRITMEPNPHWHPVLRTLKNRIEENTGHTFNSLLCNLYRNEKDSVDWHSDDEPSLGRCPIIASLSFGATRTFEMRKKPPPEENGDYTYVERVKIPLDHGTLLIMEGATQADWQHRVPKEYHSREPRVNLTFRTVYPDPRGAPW

[5] = target: T3, ALKBH3 L177A (Homo sapiens, UniProt Q96Q83 1-286, L177A); assay: as above; conditions: protein: recombinant; (Ni-chelating purification); single strand
T3 sequence: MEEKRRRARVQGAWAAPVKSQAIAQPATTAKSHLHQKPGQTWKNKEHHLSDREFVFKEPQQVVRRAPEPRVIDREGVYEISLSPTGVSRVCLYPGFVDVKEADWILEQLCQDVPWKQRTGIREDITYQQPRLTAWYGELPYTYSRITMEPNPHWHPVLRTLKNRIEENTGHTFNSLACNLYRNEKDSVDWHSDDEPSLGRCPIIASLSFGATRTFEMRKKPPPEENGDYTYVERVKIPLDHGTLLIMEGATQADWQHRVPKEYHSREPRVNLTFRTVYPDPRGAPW

[6] = target: T4, ALKBH3 Y143A (Homo sapiens, UniProt Q96Q83 1-286, Y143A); assay: as above; conditions: protein: recombinant; tags: N-terminal His-tag (pET28a); single strand
T4 sequence: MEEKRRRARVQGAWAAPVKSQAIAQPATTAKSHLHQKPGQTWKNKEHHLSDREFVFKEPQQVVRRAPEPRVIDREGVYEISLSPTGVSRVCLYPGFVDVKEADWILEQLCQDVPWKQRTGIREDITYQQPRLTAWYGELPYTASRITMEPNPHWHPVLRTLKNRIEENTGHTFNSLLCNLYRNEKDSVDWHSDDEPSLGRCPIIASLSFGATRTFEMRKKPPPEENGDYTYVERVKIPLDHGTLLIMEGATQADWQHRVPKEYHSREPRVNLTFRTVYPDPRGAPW

[7] = target: T5, ALKBH3 Y143F (Homo sapiens, UniProt Q96Q83 1-286, Y143F); assay: stopped-flow FRET kinetics (DynaFit); Fe(II), 2OG; enzyme-product complex; Titration: 50 mM HEPES-KOH pH 7.8, 50 mM KCl, 10 mM MgCl2, 2 mM EDTA, 25 °C, 1 µM apoprotein; stopped-flow: with Fe(II) and 2OG, 0.5-4.0 µM DNA (buffer not in material); conditions: protein: recombinant; tags: N-terminal His-tag (pET28a); label: 5'-6-FAM, 3'-BHQ1; single strand
T5 sequence: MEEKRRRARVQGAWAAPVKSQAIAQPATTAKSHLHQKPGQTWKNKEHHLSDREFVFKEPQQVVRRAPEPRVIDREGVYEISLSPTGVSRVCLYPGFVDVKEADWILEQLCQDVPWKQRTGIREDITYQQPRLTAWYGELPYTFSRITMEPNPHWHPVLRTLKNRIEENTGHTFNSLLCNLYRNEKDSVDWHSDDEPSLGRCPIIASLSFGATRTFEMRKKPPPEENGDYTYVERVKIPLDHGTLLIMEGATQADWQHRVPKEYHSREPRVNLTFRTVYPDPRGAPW

[8] = target: T2, ALKBH3 wt; assay: as above; conditions: protein: recombinant; tags: N-terminal His-tag (pET28a); label: 5'-6-FAM, 3'-BHQ1; single strand
[9] = target: T5, ALKBH3 Y143F; assay: stopped-flow FRET kinetics (DynaFit); Fe(II), 2OG; overall Ka = K1+K1K2+K1K2K3; Titration: 50 mM HEPES-KOH pH 7.8, 50 mM KCl, 10 mM MgCl2, 2 mM EDTA, 25 °C, 1 µM apoprotein; stopped-flow: with Fe(II) and 2OG, 0.5-4.0 µM DNA (buffer not in material); conditions: protein: recombinant; tags: N-terminal His-tag (pET28a); label: 5'-6-FAM, 3'-BHQ1; single strand
[10] = target: T2, ALKBH3 wt; assay: as above; conditions: protein: recombinant; tags: N-terminal His-tag (pET28a); label: 5'-6-FAM, 3'-BHQ1; single strand
[11] = design: method as in PMID 22443471; conditions: cited from earlier work
[12] = test system: m3C_FRET substrate (m3C-containing DNA); design: method as in PMID 31847292; conditions: AlkB-ssDNA, pre-steady-state; cited from earlier work

B1: ALKBH2: human AlkB homolog 2 dioxygenase, literature comparison (protein, UniProt Q6NS38 1-261, looked up)
DNA oxidative demethylase …: MDRFLVKGAQGGLLRKQEEQEPTGEEPAVLGGDKESTRKRPRREAPGNGGHSAGPSWRHIRAEGLDCSYTVLFGKAEADEIFQELEKEVEYFTGALARVQVFGKWHSVPRKQATYGDAGLTYTFSGLTLSPKPWIPVLERIRDHVSGVTGQTFNFVLINRYKDGCDHIGEHRDDERELAPGSPIASVSFGACRDFVFRHKDSRGKSPSRRVAVVRLPLAHGSLLMMNHPTNTHWYHSLPVRKKVLAPRVNLTFRKILLTKK
Which Kd [1] does the source give for B1 here?
The Kd was 15 to 50 µM.

And the “observed rate constant for demethylation, kobs” value [2]?
Its value is 0.22 min⁻¹.

Which results are given for ACAGGATCCGGCATA (ssDNA, N3-methylcytosine at position 9) [m3C]?
Kd [3]: 4.3 ± 0.3 µM; Kd [4]: 2.8 ± 0.1 µM; Kd [5]: 5.7 ± 0.3 µM; Kd [6]: 6.3 ± 0.6 µM

With ACAGGATCCGGCATA (ssDNA, none (m3C demethylated to C)) [m3C_FRET repaired product] as the molecule, how does the Kd [7] read?
The Kd was 0.083 µM.

What about the Kd [8] of the same molecule?
Its Kd is 0.72 µM.

What does the source list for ACAGGATCCGGCATA (ssDNA, N3-methylcytosine at position 9) [m3C_FRET]?
Ka [9]: 1.4e+06 M⁻¹; Ka [10]: 1.9e+06 M⁻¹

B2: AlkB: E. coli AlkB dioxygenase, literature comparison (protein, UniProt P05050 1-216, looked up)
Alpha-ketoglutarate-dependent …: MLDLFADAEPWQEPLAAGAVILRRFAFNAAEQLIRDINDVASQSPFRQMVTPGGYTMSVAMTNCGHLGWTTHRQGYLYSPIDPQTNKPWPAMPQSFHNLCQRAATAAGYPDFQPDACLINRYAPGAKLSLHQDKDEPDLRAPIVSVSLGLPAIFQFGGLKRNDPLKRLLLEHGDVVVWGGESRLFYHGIQPLKAGFHPLTIDCRYNLTFRQAGKKE
For B2, which Kd [1] is on record?
The Kd was 15 to 50 µM.

And the Tm [11]?
The Tm was 54 °C.

And the “kr (hydroxylation of the substrate's methyl group)” value [12]?
The value was 0.19 s⁻¹.
